Laboratory results from paper PMC3347535, “D-Arabinose Methabolism: Characterization of Bifunctional Arabinokinase/Pyrophosphorylase of Leishmania major” (Acta Naturae, 2009).

Tested on: O=P(O)(O)OC1OC[C@@H](O)[C@@H](O)[C@@H]1O
Assay: purified protein
Details: GDP-D-Arap pyrophosphorylase reaction; GTP co-substrate; exogenous arabinose phosphate; kinetic assay conditions not given

## LmjF16.0480 (Leishmania major)
  Km: 67.0 mM
